Consider two molecules from publication PMC8998336 (2022).

Test [1] deals with T1, human cationic trypsin (TRY1) p.S200A (human, UniProt P07477 24-247, p.S200A). The test can be described thus: SPR.
Test [2] has as its target T1, human cationic trypsin (TRY1) p.S200A. The test is described as follows: SPR. The source holds these as a separate data set.
Test [3] has as its target human cationic trypsin (TRY1) WT (human, UniProt P07477 24-247). The test can be described thus: trypsin activity assay.

B1: serine protease inhibitor Kazal-type 1 (SPINK1) p.N34S (natural protein)
chain: DSLGREAKCYSELNGCTKIYDPVCGTDGNTYPNECVLCFENRKRQTSILIQKSGPC
Regarding B1, the Kd in test [1] came to 0.863 nM. The molecule also came in with a koff in test [2] of 0.0002 s⁻¹. The same molecule gave a Ki in test [3] of 0.045 nM.

B2: serine protease inhibitor Kazal-type 1 (SPINK1) WT (natural protein)
chain: DSLGREAKCYNELNGCTKIYDPVCGTDGNTYPNECVLCFENRKRQTSILIQKSGPC
Take B2: in test [1], binding was characterised by a dissociation constant (Kd) of 0.8 nM. The koff in test [2] came out at 0.0002 s⁻¹. In test [3], this molecule showed a Ki of 0.028 nM.
